One substance from patent publication US20140072613A1, “Compositions and Methods for Treating Cutaneous Scarring” (priority 2012, published 2014) can be followed below.

Some targets named below: JNK3(h) (human) (UniProt P53779); Abl(H8396P)(h) (human) (UniProt P00519); EphB2(h) (human) (UniProt P29323); ASK1(h) (human) (UniProt Q99683); PAR-1Bα(h) (human) (UniProt Q7KZI7); Met(Y1248D)(h) (human) (UniProt P08581); RIPK2(h) (human) (UniProt O43353); cKit(h) (human) (UniProt P10721); CDK1/cyclinB(h) (human) (UniProt P06493); mTOR/FKBP12(h) (human) (UniProt P42345); Arg(h) (human) (UniProt P42684); LIMK1(h) (human) (UniProt P53667); AMPKα2(h) (human) (UniProt P54646); ZAP-70(h) (human) (UniProt P43403); CDK5/p25(h) (human) (UniProt Q00535).

Common to all, as to assay: cell-based or functional assay
The target of another experiment is T1, GRK7(h) (human) (UniProt Q8WTQ7).
T1 sequence (looked up): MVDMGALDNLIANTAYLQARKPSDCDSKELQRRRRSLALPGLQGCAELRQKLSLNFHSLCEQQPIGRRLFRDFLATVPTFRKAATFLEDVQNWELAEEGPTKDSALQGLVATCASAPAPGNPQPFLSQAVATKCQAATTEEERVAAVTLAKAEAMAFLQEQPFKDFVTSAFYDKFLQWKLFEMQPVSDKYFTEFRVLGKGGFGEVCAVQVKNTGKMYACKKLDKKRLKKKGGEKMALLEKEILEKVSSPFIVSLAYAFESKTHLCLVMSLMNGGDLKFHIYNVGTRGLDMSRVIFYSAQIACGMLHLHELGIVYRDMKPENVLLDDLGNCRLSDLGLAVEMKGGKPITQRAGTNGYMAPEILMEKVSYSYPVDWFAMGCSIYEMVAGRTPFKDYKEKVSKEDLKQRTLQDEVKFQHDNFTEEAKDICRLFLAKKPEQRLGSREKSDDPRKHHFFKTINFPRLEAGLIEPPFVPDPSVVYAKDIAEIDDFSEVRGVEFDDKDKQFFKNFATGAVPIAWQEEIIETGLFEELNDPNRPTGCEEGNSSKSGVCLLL

The next experiment deals with T2, Tec(h)activated (human) (UniProt P42680).
T2 sequence (looked up): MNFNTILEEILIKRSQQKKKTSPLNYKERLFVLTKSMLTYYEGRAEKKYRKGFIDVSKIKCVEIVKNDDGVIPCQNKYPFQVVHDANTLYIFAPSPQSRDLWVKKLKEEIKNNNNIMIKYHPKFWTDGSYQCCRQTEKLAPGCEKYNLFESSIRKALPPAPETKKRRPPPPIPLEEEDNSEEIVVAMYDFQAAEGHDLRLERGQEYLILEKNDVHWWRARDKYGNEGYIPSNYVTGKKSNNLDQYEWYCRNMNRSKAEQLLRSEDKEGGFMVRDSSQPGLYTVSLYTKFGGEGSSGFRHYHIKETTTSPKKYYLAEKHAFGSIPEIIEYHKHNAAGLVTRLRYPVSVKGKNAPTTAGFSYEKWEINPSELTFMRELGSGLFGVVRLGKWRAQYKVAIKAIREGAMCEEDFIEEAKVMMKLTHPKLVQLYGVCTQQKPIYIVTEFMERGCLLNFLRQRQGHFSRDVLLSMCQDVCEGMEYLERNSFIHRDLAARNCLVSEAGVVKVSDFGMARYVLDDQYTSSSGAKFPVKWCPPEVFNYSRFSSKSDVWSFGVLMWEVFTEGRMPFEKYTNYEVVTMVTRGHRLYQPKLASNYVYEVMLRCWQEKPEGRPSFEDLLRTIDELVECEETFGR

For a further experiment, the target named is T3, NEK3(h) (human) (UniProt P51956).
T3 sequence (looked up): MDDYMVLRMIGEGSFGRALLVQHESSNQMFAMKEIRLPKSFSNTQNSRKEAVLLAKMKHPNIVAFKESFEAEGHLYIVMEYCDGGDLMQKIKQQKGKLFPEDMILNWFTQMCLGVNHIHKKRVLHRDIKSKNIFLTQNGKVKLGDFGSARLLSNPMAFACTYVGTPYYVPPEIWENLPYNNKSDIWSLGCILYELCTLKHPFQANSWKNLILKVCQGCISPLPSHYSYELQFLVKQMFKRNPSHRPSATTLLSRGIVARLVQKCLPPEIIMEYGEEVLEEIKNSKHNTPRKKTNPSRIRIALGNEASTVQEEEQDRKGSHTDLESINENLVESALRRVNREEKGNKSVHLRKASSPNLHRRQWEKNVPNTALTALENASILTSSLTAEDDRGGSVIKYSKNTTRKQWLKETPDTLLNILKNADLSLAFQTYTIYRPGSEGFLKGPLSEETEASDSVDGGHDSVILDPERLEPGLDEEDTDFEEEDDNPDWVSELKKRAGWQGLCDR

Sequence of Abl(H8396P)(h) (human) (P00519 27-1130, stated change not applied): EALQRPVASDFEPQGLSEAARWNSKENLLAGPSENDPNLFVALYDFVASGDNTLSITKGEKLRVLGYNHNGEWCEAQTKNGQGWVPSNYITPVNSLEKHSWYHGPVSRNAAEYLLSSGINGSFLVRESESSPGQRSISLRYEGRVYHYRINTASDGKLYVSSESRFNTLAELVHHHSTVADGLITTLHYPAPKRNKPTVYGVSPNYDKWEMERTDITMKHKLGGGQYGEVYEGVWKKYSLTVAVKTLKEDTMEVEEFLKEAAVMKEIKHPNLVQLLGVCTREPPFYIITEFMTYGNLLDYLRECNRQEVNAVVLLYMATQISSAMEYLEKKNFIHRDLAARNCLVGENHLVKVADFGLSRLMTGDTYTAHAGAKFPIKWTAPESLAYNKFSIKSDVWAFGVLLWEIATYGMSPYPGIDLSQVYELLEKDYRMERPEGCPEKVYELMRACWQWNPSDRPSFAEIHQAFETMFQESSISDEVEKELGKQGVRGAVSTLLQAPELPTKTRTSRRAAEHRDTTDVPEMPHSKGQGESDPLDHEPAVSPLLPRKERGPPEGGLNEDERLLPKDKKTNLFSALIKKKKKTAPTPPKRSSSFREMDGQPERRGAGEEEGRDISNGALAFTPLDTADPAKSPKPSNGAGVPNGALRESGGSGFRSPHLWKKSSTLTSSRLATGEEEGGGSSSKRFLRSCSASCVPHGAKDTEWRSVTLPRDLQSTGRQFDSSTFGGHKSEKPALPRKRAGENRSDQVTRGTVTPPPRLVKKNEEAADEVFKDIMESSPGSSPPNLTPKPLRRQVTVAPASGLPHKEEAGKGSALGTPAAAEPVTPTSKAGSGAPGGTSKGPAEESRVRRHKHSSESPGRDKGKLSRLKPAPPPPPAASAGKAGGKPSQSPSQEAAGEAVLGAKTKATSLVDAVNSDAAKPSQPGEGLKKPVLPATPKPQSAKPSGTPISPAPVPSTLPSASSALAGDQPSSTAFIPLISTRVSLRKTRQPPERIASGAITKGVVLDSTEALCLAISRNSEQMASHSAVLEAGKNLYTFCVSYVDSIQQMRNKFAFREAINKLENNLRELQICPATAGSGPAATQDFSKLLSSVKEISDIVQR
Sequence of mTOR/FKBP12(h) (human) (P42345 1362-2549 limits assumed, chain 1 of 2): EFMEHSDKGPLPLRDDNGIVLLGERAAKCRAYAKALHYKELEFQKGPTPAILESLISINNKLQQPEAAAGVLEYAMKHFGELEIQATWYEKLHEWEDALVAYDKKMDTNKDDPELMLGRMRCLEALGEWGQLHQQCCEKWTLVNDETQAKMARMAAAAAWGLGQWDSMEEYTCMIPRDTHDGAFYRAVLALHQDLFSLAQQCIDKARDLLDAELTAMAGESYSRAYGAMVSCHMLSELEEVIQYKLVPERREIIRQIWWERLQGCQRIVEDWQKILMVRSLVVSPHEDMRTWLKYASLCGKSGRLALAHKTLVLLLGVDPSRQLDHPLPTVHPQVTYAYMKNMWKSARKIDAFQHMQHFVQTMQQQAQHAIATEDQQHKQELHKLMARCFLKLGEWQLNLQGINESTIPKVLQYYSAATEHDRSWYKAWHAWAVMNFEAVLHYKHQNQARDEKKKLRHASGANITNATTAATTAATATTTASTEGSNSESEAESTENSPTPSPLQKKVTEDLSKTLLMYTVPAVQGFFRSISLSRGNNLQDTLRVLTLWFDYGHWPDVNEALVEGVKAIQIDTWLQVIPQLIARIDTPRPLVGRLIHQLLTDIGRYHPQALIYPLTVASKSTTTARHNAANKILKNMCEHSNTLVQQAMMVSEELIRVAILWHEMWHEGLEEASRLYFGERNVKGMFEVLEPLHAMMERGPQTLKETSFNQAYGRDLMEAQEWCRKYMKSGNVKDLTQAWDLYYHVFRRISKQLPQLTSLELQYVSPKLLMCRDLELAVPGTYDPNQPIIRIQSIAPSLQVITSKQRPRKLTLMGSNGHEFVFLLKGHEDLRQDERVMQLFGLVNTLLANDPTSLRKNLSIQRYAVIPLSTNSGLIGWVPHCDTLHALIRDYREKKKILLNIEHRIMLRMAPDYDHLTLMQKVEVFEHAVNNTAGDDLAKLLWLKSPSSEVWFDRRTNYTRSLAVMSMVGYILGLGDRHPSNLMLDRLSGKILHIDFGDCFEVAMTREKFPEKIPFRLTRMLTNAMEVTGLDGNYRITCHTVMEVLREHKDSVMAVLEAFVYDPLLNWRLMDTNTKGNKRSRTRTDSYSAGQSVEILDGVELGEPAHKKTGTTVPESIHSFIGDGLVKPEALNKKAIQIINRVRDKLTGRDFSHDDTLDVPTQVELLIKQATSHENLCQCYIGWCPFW
Sequence of mTOR/FKBP12(h) (human) (P62942 whole entry, chain 2 of 2, further chain): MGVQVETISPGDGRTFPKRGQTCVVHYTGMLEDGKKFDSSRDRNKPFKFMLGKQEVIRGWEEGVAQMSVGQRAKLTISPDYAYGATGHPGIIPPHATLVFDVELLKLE
Sequence of ASK1(h) (human) (Q99683 649-946 limits assumed): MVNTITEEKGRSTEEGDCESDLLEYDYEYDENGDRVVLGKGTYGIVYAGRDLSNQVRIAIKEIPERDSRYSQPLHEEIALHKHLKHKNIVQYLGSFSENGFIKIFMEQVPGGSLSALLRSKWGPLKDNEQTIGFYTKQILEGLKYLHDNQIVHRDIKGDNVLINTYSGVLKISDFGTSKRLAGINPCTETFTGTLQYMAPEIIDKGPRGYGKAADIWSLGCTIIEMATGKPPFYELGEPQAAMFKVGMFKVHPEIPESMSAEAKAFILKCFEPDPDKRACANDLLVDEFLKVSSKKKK
Sequence of CDK1/cyclinB(h) (human) (P06493 whole entry, chain 1 of 2): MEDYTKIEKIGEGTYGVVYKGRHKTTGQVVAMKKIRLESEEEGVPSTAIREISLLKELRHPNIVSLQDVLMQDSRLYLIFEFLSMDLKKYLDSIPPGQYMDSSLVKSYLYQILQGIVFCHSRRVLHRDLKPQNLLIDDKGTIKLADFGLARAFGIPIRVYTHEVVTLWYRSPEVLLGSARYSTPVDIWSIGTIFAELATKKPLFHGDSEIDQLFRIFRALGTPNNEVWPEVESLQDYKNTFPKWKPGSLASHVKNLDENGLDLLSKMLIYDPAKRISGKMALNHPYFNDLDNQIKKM
Sequence of CDK1/cyclinB(h) (human) (P14635 whole entry, chain 2 of 2, further chain): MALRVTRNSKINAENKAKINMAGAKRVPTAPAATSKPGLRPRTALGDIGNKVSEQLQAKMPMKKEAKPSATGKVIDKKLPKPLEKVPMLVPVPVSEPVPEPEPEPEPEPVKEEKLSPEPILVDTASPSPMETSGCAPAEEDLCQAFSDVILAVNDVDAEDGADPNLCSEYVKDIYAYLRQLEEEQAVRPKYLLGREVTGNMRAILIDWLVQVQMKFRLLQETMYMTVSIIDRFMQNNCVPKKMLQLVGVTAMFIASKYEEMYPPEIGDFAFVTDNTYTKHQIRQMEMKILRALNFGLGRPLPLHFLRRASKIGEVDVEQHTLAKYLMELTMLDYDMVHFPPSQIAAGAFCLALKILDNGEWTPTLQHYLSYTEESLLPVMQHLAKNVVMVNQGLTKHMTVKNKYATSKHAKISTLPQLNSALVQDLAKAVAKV
Sequence of RIPK2(h) (human) (O43353 1-299 limits assumed): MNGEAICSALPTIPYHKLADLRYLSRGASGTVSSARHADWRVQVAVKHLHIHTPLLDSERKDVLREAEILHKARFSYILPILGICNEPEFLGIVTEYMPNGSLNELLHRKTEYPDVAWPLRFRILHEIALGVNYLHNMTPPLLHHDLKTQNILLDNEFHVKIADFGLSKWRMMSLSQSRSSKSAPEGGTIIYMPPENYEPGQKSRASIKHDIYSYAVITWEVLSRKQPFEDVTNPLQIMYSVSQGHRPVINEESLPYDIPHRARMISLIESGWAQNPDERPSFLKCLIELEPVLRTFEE
Sequence of EphB2(h) (human) (P29323 565-986 limits assumed): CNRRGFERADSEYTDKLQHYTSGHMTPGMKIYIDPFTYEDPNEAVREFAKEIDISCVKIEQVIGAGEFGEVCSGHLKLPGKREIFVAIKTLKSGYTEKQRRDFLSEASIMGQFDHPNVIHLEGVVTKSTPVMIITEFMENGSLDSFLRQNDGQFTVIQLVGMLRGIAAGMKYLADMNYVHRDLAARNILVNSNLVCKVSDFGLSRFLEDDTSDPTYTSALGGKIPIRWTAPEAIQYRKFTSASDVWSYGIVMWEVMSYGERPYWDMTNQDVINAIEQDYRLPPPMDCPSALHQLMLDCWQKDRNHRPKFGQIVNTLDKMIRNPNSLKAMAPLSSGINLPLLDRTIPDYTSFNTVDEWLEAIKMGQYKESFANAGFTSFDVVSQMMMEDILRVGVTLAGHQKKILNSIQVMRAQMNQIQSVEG
Sequence of cKit(h) (human) (P10721 544-976): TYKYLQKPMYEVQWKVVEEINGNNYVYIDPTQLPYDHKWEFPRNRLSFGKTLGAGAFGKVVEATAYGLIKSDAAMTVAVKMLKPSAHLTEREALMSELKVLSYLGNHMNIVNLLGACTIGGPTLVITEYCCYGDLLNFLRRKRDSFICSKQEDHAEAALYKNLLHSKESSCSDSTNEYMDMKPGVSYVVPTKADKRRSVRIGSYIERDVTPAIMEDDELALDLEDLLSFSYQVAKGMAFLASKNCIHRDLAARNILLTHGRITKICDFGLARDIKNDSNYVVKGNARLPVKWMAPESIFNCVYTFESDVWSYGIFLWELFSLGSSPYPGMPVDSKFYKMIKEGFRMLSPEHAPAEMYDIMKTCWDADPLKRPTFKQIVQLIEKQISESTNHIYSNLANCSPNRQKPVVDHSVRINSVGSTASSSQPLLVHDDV
Sequence of LIMK1(h) (human) (P53667 285-638 limits assumed): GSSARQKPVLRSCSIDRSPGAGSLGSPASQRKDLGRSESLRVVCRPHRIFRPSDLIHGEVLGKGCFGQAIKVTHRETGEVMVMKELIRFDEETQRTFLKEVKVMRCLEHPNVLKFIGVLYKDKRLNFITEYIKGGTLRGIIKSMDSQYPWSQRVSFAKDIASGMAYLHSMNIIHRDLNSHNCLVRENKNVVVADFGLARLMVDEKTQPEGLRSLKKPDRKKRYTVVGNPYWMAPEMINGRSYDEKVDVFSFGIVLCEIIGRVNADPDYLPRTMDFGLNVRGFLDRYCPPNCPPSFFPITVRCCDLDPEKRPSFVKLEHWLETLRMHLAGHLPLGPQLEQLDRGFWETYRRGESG

Consider MMI-0500 (peptide), for which the % activity, 100 µM with JNK3(h) (human) is 171%; with GRK7(h) (human) it was 93%; with Abl(H8396P)(h) (human), 51%; with EphB2(h) (human), 70%; with ASK1(h) (human), -4%; with PAR-1Bα(h) (human), 97%. Also, the % activity, 100 µM stood at 218% with Met(Y1248D)(h) (human); 30% with RIPK2(h) (human); 45% in the experiment with cKit(h) (human); 57% in the experiment with CDK1/cyclinB(h) (human); 140% with mTOR/FKBP12(h) (human); 33% in the experiment with Tec(h)activated (human). Besides, the % activity, 100 µM with Arg(h) (human) came out at 22%; with LIMK1(h) (human), 87%; in the experiment with AMPKα2(h) (human), 9%; with ZAP-70(h) (human), 1%; with NEK3(h) (human) it was 20%; with CDK5/p25(h) (human), 66%.
